Experimental data as given in patent publication US20250002945, “NEW TALE PROTEIN SCAFFOLDS WITH IMPROVED ON-TARGET/OFF-TARGET ACTIVITY RATIOS” (CELLECTIS SA, published 2025).

Tests used:
Experiment in all cases: cell_activity; T cells, mostly above 70%
Details in all cases: tags: SV40 NLS; FokI fusion
CISH (1) left V2 TALEN = target: T1, CISH (1) left V2 TALEN (synthetic, UniProt Q56830 SEQ:15-719)
T1 chain: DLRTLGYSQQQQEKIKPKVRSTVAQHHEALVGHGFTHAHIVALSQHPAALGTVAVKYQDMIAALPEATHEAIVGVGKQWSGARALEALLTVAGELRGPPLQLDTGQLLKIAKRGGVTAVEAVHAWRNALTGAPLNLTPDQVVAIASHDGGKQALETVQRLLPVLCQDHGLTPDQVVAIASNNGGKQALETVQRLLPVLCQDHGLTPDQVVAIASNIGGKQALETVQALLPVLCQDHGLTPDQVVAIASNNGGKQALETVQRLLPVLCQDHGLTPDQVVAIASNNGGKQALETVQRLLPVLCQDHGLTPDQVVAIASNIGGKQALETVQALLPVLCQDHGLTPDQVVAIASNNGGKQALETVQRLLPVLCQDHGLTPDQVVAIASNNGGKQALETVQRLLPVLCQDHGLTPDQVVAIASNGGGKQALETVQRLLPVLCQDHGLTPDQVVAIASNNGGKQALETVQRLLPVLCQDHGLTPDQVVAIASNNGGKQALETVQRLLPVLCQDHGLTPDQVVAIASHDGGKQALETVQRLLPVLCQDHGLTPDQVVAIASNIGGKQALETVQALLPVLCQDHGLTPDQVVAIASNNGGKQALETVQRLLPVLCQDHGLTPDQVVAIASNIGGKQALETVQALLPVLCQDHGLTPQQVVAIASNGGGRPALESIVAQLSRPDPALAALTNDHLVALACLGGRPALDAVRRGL

TIGIT left V2 TALEN = target: T2, TIGIT left V2 TALEN (synthetic, UniProt Q56830 SEQ:15-719)
T2 chain: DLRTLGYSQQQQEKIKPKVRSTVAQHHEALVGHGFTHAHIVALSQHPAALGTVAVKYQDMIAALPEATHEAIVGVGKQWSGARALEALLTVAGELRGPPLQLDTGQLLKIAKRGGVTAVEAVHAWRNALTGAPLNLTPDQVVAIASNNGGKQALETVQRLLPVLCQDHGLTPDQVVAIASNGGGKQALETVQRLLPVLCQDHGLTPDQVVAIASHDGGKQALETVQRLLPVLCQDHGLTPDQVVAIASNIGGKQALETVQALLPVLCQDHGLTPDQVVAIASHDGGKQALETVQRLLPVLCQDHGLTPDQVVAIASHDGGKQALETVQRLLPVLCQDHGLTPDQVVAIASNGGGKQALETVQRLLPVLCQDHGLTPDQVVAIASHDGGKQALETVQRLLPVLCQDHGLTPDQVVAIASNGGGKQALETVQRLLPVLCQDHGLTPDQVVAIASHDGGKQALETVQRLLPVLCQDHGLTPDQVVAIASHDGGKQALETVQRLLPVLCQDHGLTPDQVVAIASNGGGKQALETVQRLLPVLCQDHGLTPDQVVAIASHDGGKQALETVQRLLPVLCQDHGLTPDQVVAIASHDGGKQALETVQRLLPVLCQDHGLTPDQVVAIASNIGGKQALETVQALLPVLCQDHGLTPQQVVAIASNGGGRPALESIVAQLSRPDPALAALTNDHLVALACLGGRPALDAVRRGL

TIGIT right V2 TALEN = target: T3, TIGIT right V2 TALEN (synthetic, UniProt Q56830 SEQ:15-719)
T3 chain: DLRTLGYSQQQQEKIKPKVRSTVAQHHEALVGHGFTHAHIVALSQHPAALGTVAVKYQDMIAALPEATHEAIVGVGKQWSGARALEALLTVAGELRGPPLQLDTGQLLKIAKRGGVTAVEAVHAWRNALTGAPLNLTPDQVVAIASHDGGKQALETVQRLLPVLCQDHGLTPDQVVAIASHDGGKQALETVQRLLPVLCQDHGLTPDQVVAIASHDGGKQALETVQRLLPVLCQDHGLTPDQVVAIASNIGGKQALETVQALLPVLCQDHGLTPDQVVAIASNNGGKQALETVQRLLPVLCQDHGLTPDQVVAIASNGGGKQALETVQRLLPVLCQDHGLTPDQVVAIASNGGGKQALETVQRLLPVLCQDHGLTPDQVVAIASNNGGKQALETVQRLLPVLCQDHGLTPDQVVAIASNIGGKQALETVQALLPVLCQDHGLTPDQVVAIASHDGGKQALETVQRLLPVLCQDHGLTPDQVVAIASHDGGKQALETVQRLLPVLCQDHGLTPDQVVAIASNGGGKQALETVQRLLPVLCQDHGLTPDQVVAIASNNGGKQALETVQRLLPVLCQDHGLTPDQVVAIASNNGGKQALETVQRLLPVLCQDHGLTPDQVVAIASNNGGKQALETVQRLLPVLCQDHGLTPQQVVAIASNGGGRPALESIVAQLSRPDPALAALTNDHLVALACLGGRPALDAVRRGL

CISH (2) right V2 TALEN = target: T4, CISH (2) right V2 TALEN (synthetic, UniProt Q56830 SEQ:15-719)
T4 chain: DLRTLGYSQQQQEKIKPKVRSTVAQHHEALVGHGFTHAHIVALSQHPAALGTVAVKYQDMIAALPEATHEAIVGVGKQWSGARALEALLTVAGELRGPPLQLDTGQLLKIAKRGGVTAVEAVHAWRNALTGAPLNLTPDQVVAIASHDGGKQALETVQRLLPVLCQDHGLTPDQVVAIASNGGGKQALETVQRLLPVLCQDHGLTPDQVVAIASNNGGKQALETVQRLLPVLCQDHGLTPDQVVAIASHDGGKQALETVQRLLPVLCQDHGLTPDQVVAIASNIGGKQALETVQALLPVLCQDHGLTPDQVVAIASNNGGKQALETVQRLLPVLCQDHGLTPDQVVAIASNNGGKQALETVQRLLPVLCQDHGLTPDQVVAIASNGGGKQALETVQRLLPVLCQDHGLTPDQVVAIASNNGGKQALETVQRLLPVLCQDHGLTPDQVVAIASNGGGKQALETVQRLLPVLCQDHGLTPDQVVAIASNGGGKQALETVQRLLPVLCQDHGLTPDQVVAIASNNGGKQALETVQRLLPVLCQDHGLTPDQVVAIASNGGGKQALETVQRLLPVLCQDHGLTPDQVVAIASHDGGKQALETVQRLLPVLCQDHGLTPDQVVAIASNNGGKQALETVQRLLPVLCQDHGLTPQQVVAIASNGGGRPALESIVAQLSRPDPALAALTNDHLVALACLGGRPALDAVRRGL

CISH (3) left V2 TALEN = target: T5, CISH (3) left V2 TALEN (synthetic, UniProt Q56830 SEQ:15-719)
T5 chain: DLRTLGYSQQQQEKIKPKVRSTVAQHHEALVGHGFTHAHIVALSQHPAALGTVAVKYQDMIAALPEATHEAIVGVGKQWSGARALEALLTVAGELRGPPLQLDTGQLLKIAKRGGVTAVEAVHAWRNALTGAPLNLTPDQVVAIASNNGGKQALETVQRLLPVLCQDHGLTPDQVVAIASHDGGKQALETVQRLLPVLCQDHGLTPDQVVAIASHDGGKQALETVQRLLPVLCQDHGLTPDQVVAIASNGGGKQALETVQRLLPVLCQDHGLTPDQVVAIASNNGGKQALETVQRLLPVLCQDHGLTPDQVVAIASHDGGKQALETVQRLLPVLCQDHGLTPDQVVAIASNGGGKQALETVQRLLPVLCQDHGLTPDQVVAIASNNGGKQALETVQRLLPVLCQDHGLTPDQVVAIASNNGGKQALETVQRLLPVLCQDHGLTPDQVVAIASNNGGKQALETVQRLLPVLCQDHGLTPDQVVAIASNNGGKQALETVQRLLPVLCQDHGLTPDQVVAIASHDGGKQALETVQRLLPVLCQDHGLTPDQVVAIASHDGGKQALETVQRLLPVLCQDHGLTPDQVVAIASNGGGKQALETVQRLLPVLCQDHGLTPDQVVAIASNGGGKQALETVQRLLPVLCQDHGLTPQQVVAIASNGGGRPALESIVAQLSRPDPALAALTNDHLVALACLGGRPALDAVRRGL

CISH (1) right V2 TALEN = target: T6, CISH (1) right V2 TALEN (synthetic, UniProt Q56830 SEQ:15-719)
T6 chain: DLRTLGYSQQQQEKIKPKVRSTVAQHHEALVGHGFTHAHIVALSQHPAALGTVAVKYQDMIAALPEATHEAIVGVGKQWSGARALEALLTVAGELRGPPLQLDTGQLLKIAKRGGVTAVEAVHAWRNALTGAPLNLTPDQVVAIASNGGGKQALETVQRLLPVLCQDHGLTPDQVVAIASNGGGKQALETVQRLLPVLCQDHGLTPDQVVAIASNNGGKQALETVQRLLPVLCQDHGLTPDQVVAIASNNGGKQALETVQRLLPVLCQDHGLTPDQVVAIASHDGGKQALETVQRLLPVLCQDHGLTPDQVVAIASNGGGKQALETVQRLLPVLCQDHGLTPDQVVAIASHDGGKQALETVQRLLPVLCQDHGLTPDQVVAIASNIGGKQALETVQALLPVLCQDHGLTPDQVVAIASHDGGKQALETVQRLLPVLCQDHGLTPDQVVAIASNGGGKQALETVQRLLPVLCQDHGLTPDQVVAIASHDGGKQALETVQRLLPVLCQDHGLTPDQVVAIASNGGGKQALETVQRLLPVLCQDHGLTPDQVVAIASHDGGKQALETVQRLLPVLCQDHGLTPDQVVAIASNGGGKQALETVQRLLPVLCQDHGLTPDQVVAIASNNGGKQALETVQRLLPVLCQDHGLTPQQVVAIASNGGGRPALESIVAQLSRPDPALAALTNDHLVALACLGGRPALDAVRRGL

CISH (2) left V2 TALEN = target: T7, CISH (2) left V2 TALEN (synthetic, UniProt Q56830 SEQ:15-719)
T7 chain: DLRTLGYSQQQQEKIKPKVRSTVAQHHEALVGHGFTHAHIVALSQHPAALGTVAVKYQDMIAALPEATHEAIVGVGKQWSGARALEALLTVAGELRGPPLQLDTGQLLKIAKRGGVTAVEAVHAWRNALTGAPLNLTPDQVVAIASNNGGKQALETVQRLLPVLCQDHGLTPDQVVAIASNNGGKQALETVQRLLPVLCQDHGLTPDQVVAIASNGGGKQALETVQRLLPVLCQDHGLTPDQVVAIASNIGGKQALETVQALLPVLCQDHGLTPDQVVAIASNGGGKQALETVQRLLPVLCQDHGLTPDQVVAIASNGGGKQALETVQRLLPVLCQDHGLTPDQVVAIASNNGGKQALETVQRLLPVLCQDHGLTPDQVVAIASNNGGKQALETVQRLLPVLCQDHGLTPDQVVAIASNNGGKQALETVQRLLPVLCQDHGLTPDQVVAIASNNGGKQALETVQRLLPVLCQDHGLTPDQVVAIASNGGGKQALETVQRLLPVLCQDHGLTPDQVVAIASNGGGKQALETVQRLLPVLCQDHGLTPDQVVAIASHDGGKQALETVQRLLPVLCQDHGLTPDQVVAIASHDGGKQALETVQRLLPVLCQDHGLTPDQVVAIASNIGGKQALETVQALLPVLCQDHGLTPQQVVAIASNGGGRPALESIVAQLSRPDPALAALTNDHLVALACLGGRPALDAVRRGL

B1: CISH (1) left half-site (dsDNA)
DNA 1: TCGAGGAGGTGGCAGAG
DNA 2: CTCTGCCACCTCCTCGA
With B1 as the binder, how does the activity (CISH (1) left V2 TALEN) read?
The activity was > 50 % indels.

B2: TIGIT left half-site (dsDNA)
DNA 1: TGTCACCTCTCCTCCAC
DNA 2: GTGGAGGAGAGGTGACA
With B2 as the binder, how does the activity (TIGIT left V2 TALEN) read?
Its activity is > 50 % indels.

B3: TIGIT right half-site (dsDNA)
DNA 1: ACCCAGGTCAACTGGGA
DNA 2: TCCCAGTTGACCTGGGT
B3 was tested. Which activity (TIGIT right V2 TALEN) did it give?
Its activity is > 50 % indels.

B4: CISH (2) right half-site (dsDNA)
DNA 1: CCGACAACACCTGCAGA
DNA 2: TCTGCAGGTGTTGTCGG
For B4, which activity (CISH (2) right V2 TALEN) is on record?
The activity was > 50 % indels.

B5: CISH (3) left half-site (dsDNA)
DNA 1: TGCCTGCTGGGGCCTTC
DNA 2: GAAGGCCCCAGCAGGCA
For B5, which activity (CISH (3) left V2 TALEN) is on record?
Its activity is > 50 % indels.

B6: CISH (1) right half-site (dsDNA)
DNA 1: ACAGAGAGTGAGCCAAA
DNA 2: TTTGGCTCACTCTCTGT
Which activity (CISH (1) right V2 TALEN) does the source give for B6 here?
Its activity is > 50 % indels.

B7: CISH (2) left half-site (dsDNA)
DNA 1: TGGTATTGGGGTTCCAT
DNA 2: ATGGAACCCCAATACCA
B7 was tested. Which activity (CISH (2) left V2 TALEN) did it give?
Its activity is > 50 % indels.
